Experimental data published in the DeepSol protein solubility set.

Assay: soluble on expression in E. coli; label from the status in PepcDB or PDB records

Soluble on expression in E. coli, soluble:
MTDSPSPIDSSFDASDVATPCTVIAAKISLRNRNGLEEDQENLDSFDAFTETHETQESKNIAHGEHEEDVSNIYVDDFSKEFGDTVSSVMEPLPKPLTFARTITKVYCHLDDQEHPYMVEVHVPPDCITLRDVKRKLMRTNFKYYCIALDPDTGLEVKAEVRDDSRRLYPLKNGRFELYLLTVEGSVHSDTSSGRHRRKQDGSSKGSSGSREYLRAAHHYDNPTPFSDDESQASSLPTYVKKAHAYNRKHAPQAYERHLPHMKHNNRHNHHRQNHYEESTFDVTTESDDHYRDGVTYYDEDEDDSRSINTDLTSVSQVHLKQKWRQQQKEMRNKWKRMPSISTASSSFSSITESSMGLEVITVRLNLETIPLGMTPSGHTNARGDAGLYVGDIQDRGAVALDGRIDIGDMIVGINEISLGNYSNKEAVQLLREAVQRQYLTLTIAKTGDPKQNAFPRNPRAEPIRPIDPNEWVKHATNAMKAMPSISEGSGLDIKDRYWFKIPIPMSFLGTDLVEWLVKHVQGLETKKKAREFAEEMLKLGYIRPGVGKQSFTKECYYVMGDECADYTQLRGPDGGYKYPQSHASSASGHSSNNLIFPPSMYPPQPPTAGAVQSSKFEGREMIREVKRVGVVEEAREGTSNYHGSLHHSAVGLV
VSMDELDPHVARALTLAARFQSALDGTLNQMNNGSFRATDEAETVEVTINGHQWLTGLRIEDGLLKKLGAEAVAQRVNEALHNAQAAASAYNDAAGEQLTAALSAMSRAMNEGMA
MSLTTDWTTQVAAAAASVTAAEVDTARRALDYLCLAQLYLRDNVTLSTPLQPGHVKPAPAGHWGVCPPVNAVLAALGPYRRMPGTDVRVVHGGGHAGPSALAHAWITGALDTGEDAFGHTEVDLARLCAQFPRTRFGGEITPLIPGHDHLGGQLGPALAIAHGMGLDAPDRLVVAVIGDGECETGATAAAWLGARALIGTGTHGRVLPVILANGLRMGSASLLAALDPCDLARHLGGLGYEVITAGPSTDEITAAVARALTGLRPLQYGPSTVVVVTVDKGHGVPKTVAGQQIAQTPRVHKVPLRNPRDDNAEFVALERWLSGYRPQELFTGGAPTATVRRALAPAATGRVELHAPRGCIAAASAVADRVAGADFGAAITATLRELNTVYGLRVFSPDELASNRIELGAPDSGWTIEVLNEELCHAWAQGYQATGRRGVVVGYEAFAPITASLLAQQLLAHRLAAAAGRPPGPSLVYLLTSLGWHNTITHANPGLIDIAIGTADPSVHIYLPADATRTAAALTFAVRKLGRASLVVASKHPMPAHPHTTIDAELRDGYAVWPHIADDLDPEMVLVSIGDIAARELTRAATTITATRTATRLRYLHIHDLTSLGAPGRRDAAISAADFERLFPPGAAVLIATTCHPAAVHALLGERGAPRTVVVRGWANPPLPMSHDELLDHTGIAATALHEAALALLDSTTCDPLIRQGAREGHHHHHH
SDDFDMLSAPQGSAGNGVGADEDPAAAFLAQQESEIAGIENDEGFSILDSGDVPSSLSQDQDGGAMNGDLHGESNGPSDVYAAISSVDRLQAEPESLRKWREEQRDRLEELDANSRKQEAEWKEKAKLELEEWHTRQNEQLEKTKVNNRVLDEDFYKQPFADLIGYVTHINHPCYRLDQAAEEAMVSELDENSPGTEWERVARLCDFNPKSSKQAKDVSRMRSVLISLKQAPLVR
LESLLTLPLAGEARVRILQITDTHLFAQKHEALLGVNTWESYQAVLEAIRPHQHEFDLIVATGDLAQDQSSAAYQHFAEGIASFRAPCVWLPGNHDFQPAMYSALQDAGISPAKRVFIGEQWQILLLDSQVFGVPHGELSEFQLEWLERKLADAPERHTLLLLHHHPLPAGCSWLDQHSLRNAGELDTVLAKFPHVKYLLCGHIHQELDLDWNGRRLLATPSTCVQFKPHCSNFTLDTIAPGWRTLELHADGTLTTEVHRLADTRFQPDTASEGY
MKIGDVEVRDDVFNVKVKKHVLWEVVKWQLAKRRQGTHSTKTRGEVAYSGRKILPQKGTGNARHGERGVNIFVGGGVAHGPKPRDYEYPLPKRVRKLGLKMALSDKARNNAIIFVDNIDLGKKPKTKKAIEFLKNLGVEKEKVLVVIPEKADVLYKSFRNLPNVRVLLPEGLNVYDVLWANKLVIQKDCLDRIYKKVEA
MGSDKIHHHHHHMQVRIERAERIESELEEHVGDQTFVEESRFLEEDEQREGEILDQIIFVDGKRRSFVRITTDEGITGIFAELCVGAVIWDREGGTKTLFSPDKPPVKERVLGFSQSFQEEGYEEVGGILFKVVKEGKDAMQSIDLYMRSLEIEEVRKHMDKNILIVKDGPAARELPFEENVGPIGLVKNIGVTELSKEDFKKLRFLKKGKRSKMFVSSRETPLKKVGAYVKLIDGEGIRGLVRLETYVKDDNQIPYIRKVFDDLAKTLPHLTADLPIPRLPENILPIQFLEENLSYYLTDKNYMNTRLFAYIGR
MGAQSHSLEITSSVSAEKIFSGIVLDVDTVIPKAATGAYKSVEVKGDGGAGTVRIITLPEGSPITTMTVRTDAVNKEALSYDSTVIDGDILLGFIESIETHMVVVPTADGGSITKTTAIFHTKGDAVVPEENIKFADAQNTALFKAIEAYLIAN
VTLLVKSPNQRHRDLELSGDRGWSVGHLKAHLSRVYPERPRPEDQRLIYSGKLLLDHQCLRDLLPKQEKRHVLHLVCNVK

Soluble on expression in E. coli, not soluble:
MKALALFSGGLDSLLSMKLIQEMGIEVVALHFNIGFGANRDKLEYLQNATAQIGVELRVLDIQEQFFNEVLFNPVHGYGKYFNPCIDCHANMFRHALRLLEGEGASFIISGEVIGQRPKSQRREALHQVENLTQTKGLILRPLSAKLLPPTLAEERGWVDREKLLDIHGRGRDRQLAMAKSYGWVYFE
MSTTVGRPSNEIASCQVCHSTERTRLYFGITSCAACAAFFRRSDGIRYMCTATNSCTISHDMKFFCRACRYTSCIRAGMVMSRNALATARKAPNNIIPREPTPRSVPSLEEVDGFSKILNISNGDLLKYYVKEVESIMAQQRYGEQKNALQVKSVNDLMIVTAYQEGTSLESCFNCPGVDILYNEDVEVVHKYFKFSNTWIDSLLAPTSPLDPSCNERISEFIHLLKSTLGSTLAQLNLNIIEYAAFKSFCIWKLVYHKTSISMKIVAQEHYEGVTSALRKYYRKNIKMSELEMATRIGDITLQIITVSNLYNDMARMYHQTGLQL
MAHHHHHHMKNVKVELDGKVYTILYEPKKVKFSDLDPLKIMFHSNHVKHSGNSVIRYLVKLTSRDISKMDYVVRHVDISYDRPLKYEDSYKIIGGITSYGSTSLRITLFGTNSSSKNGCSSNLGVKNILRNGACAHVDEAAKPEEGHEKASSSGEFKSEHSEVATRRDPNKKATKSDHHVEKLLAKYKEDNADAVIKLCRNKMNEIASQKHCINYFTAHYTLVRVNKEGAKEPIQEKYKNEFPPIEVEKLKELVSVFC
MSLTESGSCSTARQAKQKRKSHSLSIRRTNSSEQERTGLPREMLEGQDSKLPSSVRSTLLELFGQIEREFENLYIENLELRREIDTLNERLAGEGQAIDGAELSKGQLKTKASHSTSQLSQKLKTTYKASTSKIVSSFKTTTSRAICQLVKEYIGHRDGIWDVSVTRTQPIVLGTASADHTAMLWSIETGKCLVKYAGHVGSVNSIKFHPSEQLALTASGDQTAHIWRYVVQLPTPQPVADTSQQISGEDEIECSDKDEPDIDGDVSSDCPTVRVPLTSLKSHQGVVIAADWLVGGKQVVTASWDRTANMYDVETSELVHSLTGHDQELTHCCTHPTQRLVVTSSRDTTFRLWDFRDPSIHSVNVFQGHTDTVTSAVFTVGDNVVSGSDDRTVKVWDLKNMRSPIATIRTDSAINRINVCVGQKIIALPHDNRQVRLFDMSGVRLARLPRSSRQGHRRMVCCSAWSEDHPICNLFTCGFDRQAIGWNINIPALLQEKEGHHHHHH
MSLDRVDRDILRILHAKGRLPVVELAKLVNLTTSPCSERVKRLEKEGYIRGYHADLDPGKLGLDVQVFIHIRLDQSSFSIFERFAHAVADIPEIEACYSLSGDFDTMIKVRVKDMKAYQAFMSGKLGSLPGVIQTRSEFVIEEHKTSFGINPELIYSLPS
MGSDKIHHHHHHGFESDNANKAGYTPELQEYDLQKYVLNLGVMQQGIYFNYDWGRGTDWTFQTIQNLGHDMFAGYFHDMNNSFNDKNSVYALNDGWTGSAWTYTYGYIMTAAQKSEKINQEQKGLLGVTKILKVELMHRIADTYGPIVYTKFGQEEGDNVDSQEAAYRQFFKDLDEGVKLINEYKKDNAALEPFAAADILMPAGKRTLSQWVKFANSLRLRLAIRVSMSAPDLARAEVAKAMDATAGGVLESADETVAVSTESGYKNPLGTVNEGWGEVFMGATMESVLVGYNDPRLIKYYSKAEGGDIKDEKGNLIIAERNKIAGTYKGVPQGTGVTVKDENRYRLHSKSTITKQTDAILMTAAEVWFLRAEAALRGFTSENVKDCYEKGITVSCQQWGVNVGDYLTSDATPSDYVDAFEAKYDVKALIKVTPKWDGGASPEEQLERILTQKWIACYPEGYEAWTEQRRTGYPQLFKVFVNNSGGAIDTNIRIRRLPYPSDIQKNNPTQYSALKKALGGEDNGGTRLWWDTGRNF
MAKRKKKEVFDWEDEDQEEIIWVSKSEIKRDAEDLKQLGEKIVNLTKANLAKIPLDESLLDAIELAQRLQKEARRRQLQYIGKLFRGIDVEPIREALDKIENKHNQQQAMLHKIEKVRDELVEKGDVALTDLLNDYPNGDRQQLRNLIRSAQKELEQNKPSKAYREIYQMLKVLMLED
MKLKGKGIGKVVVEGEVIVSRKPLSFLGGVDPETGTITDPESDIKGESITGKILVFPKGKGSTVGSYILYALSKNGKGPKAIIVEEAEPIVTAGAIISGIPLITNVDISKLKTGMRVRINPQEGEVEILAEGNLLEHHHHHH
MGSDKIHHHHHHMANELKVLEGMDVVALARKHSDQATVSGQVIPWQTSLSFDPSVDSDSTVTKDGNVATRSSASTDLEVEFLNNTAAIADVMYDSLFDGELLDFWILYRKRKNSAGKYYAWYMQVTVQEDSSDNDPDDHSTRDVTFSVNGTPKRGWTTLDDETQEQVDYVFLGVGKVTDTDKTGGGTVWDKDVDPGTNTADTAPAQSSSGTAPAQGGSSTGA
MGSDKIHHHHHHMSNELESNDVIKISVSHLALGMFVTAIDNAKGALSITNPGQIKTQDAINKLLKSGIKSVWVDVERSADNCGLKKTSAESFEPTKGNPLARKAKPSRDSKQAQVKVILNEAKNLVRKVLSETYEGKAVEVAPFEEIADRMIESVMDDADAMKCISALRTKDAYLLEHSVNVAFLLVTFGKHLGLDKTMLKEMAVGGILHDIGKIKVDNEVLHKPGKLTPEEFAHIKLHQVYAVEIMEQTQGLAQVSKDVCLMHHEKLDGRGYPKGLKGDEIPLHGRMSCIVDIFDALTATRCYKEAMSPAAAFKILISLTPFHLDQALVYEFIRCVGIYPVGSLVQLSDERIGIVWEAKDRDALHPVVKCFYSLKHKRYTEVTMVDLRKAEVNIERGVSPGTLDVDPTPFY
MGSDKIHHHHHHMEPEASPLFIDFAGISAGEKILDVGCGTGSLTFALLKAADLKEITAIDDSPVFVAETIRRSTDPRIKVEQGDACALAFDDGAFDRALALLVLHFVTDAGKAVAEMRRVVRPGGVVAASVWDHLGGMPGMRMMVDTVAALSEAGRQFRERYCFQPMMRPGEMKATFIEQGLLQVSETQLMIRMDYSNFDDYWSPMVAGEGPFGKFLSSLDAPDRARAEAAVREAYQAGQPDGPRSFANVAWACRGIAP
